# Changes are numbered by the printed parent chain. Names may count otherwise.
# B1: Clone 1F06 (antibody, V domains shown)
# VH: EVKLVESGGGLVKPGGSLKLSCAASGFIFSDYGMHWVRQAPEKGLEWIAFISSGNNTVYYADTVKGRFTISRDSAKKTLFLQMTSLRSEDTAMYYCVRHSNFCDYWGQGTSVTVSS
# VL: DVQMTQTPLSLPVSLGDQASISCRSSQSIVHSNGNTYLEWYLQKPGQSPKLLIYKVSNRFSGVPDRFSGSGSGTDFTLKISRVEAEDLGVYYCFQGSHVPPTFGAGTKLELK
# notes: also called antibody 1F06
# B2: Clone 1F06 C99M (antibody, human IgG1, V domains shown)
# VH: B1 VH with C103M
# VL: B1 VL
# notes: Human IgG1/kappa chimeric format like 1F06; C99 (Kabat, CDR-H3) is replaced by Met; also called 1F06 C99M variant; C99M variant of 1F06
# B3: Clone 2D02 (antibody, V domains shown)
# VH: EVKLQESGPGLVKPSQSLSLTCSVTGYSITSGYYWNWIRQFPGNKLEWLGFISSDGNSDYNPSLKNRISVTRDTSKNQFFLQLNSVTTEDTATYYCLRGDVDWGQGTTLTVSS
# VL: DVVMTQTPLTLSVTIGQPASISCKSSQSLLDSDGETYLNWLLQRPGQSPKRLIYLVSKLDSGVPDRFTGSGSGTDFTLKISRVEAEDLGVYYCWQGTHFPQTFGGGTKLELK
# notes: Biacore: mouse variable regions with human IgG1 and kappa constant regions
# B4: Clone 2F09 (antibody, V domains shown)
# VH: EVHVKQSGPELVEPGASVKISCKTSGYTFASYAISWVKQRTGQGLEWIGEIYPGSGDTYYDEKFKGKATLTADKSSSTAYMELRSLTSEDSAVYFCASDYDAYWGQGTLVTVSA
# VL: DIVLTQTPLSLPVSLGDQASISCRSSQSLVHRNGNTYLHWYLQKPGQSPKLLIYRISNRFSGVPDRFSGSGSGTDFTLKISRVEAEDLGVYFCSQSTHVPLTFGAGTKLEIK
# notes: Mouse variable regions with human IgG1 and kappa constant regions
# B5: Clone 2F10 (antibody, human IgG1, V domains shown)
# VH: EVKLQESGPGLVKPSQSLSLTCSVTGYSITSGYYWNWIRQFPGNKLEWLGYISDDGRNNYNPSLKNRISITRDTSKNQLFLKLNSVTTEDTATYYCVRGDYGPWGQGTTVTVSS
# VL: DVVMTQTPLTLSVTIGQPAFISCKSNQSLLDYDGETYLNWLFLRPGQSPKRLIYLVSKQDSGVPDRFTGIGSGTDFTLKINRVEAEDLGIYYCWQGTHFPQTFGGGTKLELK
# notes: Biacore: mouse variable regions with human IgG1 and kappa constant regions; A mouse IgG version was also used elsewhere
# B6: Clone 3C02 (antibody, human IgG1, V domains shown)
# VH: EVKLLESGGGLVQPGGSLKLSCAASGFTFSDYGMHWVRQAPEKGLEWIAYISRGSSAIYYADAVKGRFTISRDNAKNTLFLQMTSLRSEDTAMYYCRSPLRYFDVWGTGTSVTVSS
# VL: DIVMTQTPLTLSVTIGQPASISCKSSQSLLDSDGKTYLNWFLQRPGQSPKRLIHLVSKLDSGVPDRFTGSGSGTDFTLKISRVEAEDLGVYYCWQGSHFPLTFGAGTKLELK
# notes: as for B4
# B7: 2F09/35.21.17.2 (bispecific antibody, human IgG1, kappa)
# heavy 1: EVHVKQSGPELVEPGASVKISCKTSGYTFASYAISWVKQRTGQGLEWIGEIYPGSGDTYYDEKFKGKATLTADKSSSTAYMELRSLTSEDSAVYFCASDYDAYWGQGTLVTVSAASTKGPSVFPLAPSSKSTSGGTAALGCLVKDYFPEPVTVSWNSGALTSGVHTFPAVLQSSGLYSLSSVVTVPSSSLGTQTYICNVNHKPSNTKVDKKVEPKSCDKTHTCPPCPAPELLGGPSVFLFPPKPKDTLMISRTPEVTCVVVDVSHEDPEVKFNWYVDGVEVHNAKTKPREEQYNSTYRVVSVLTVLHQDWLNGKEYKCKVSNKALPAPIEKTISKAKGQPREPQVYTLPPSRDELTKNQVSLWCLVKGFYPSDIAVLWESYGTEWASYKTTPPVLDSDGSFFLYSKLTVTKEEWQQGFVFSCSVMHEALHNHYTQKSLSLSPGK
# heavy 2: not shown
# light: DIVLTQTPLSLPVSLGDQASISCRSSQSLVHRNGNTYLHWYLQKPGQSPKLLIYRISNRFSGVPDRFSGSGSGTDFTLKISRVEAEDLGVYFCSQSTHVPLTFGAGTKLEIKRTVAAPSVFIFPPSDEQLKSGTASVVCLLNNFYPREAKVQWKVDNALQSGNSQESVTEQDSKDSTYSLSSTLTLSKADYEKHKVYACEVTHQGLSSPVTKSFNRGEC
# notes: Knob:hole:light chain were co-transfected 1:1:2
# B8: 1F4/35.21.17.2 (bispecific antibody, human IgG1, kappa)
# heavy 1: EVQLVESGGGLVQPKGSLKLSCAASGFSFNTYAMNWVRQAPGKGLEWVARIRTKSNNYATYYADSVKDRFTISRDDSESKFHLQMNNLKTEDTAIYYCVRQGIDFYAMDYWGQGTSVTVSSASTKGPSVFPLAPSSKSTSGGTAALGCLVKDYFPEPVTVSWNSGALTSGVHTFPAVLQSSGLYSLSSVVTVPSSSLGTQTYICNVNHKPSNTKVDKKVEPKSCDKTHTCPPCPAPELLGGPSVFLFPPKPKDTLMISRTPEVTCVVVDVSHEDPEVKFNWYVDGVEVHNAKTKPREEQYNSTYRVVSVLTVLHQDWLNGKEYKCKVSNKALPAPIEKTISKAKGQPREPQVYTLPPSRDELTKNQVSLWCLVKGFYPSDIAVLWESYGTEWASYKTTPPVLDSDGSFFLYSKLTVTKEEWQQGFVFSCSVMHEALHNHYTQKSLSLSPGK
# heavy 2: not shown
# light: DVLMTQSPLSLSVSLGDQASISCRSSRDIVHSNGNTYLEWYLQKPGQSPKLLIYKVSNRFSGVPDRFSGSGSGTDFTLKISRVEAEDLGVYYCFQGTLIPLTFGAGTKLELKRTVAAPSVFIFPPSDEQLKSGTASVVCLLNNFYPREAKVQWKVDNALQSGNSQESVTEQDSKDSTYSLSSTLTLSKADYEKHKVYACEVTHQGLSSPVTKSFNRGEC
# Experiments:
# [1] = biological target: T1, human alpha-synuclein protein, monomeric (human, UniProt P37840 1-140); assay: SPR (Biacore)
# [2] = biological target: T1, human alpha-synuclein protein, monomeric; assay: SPR (Biacore), single-cycle kinetics, alpha-synuclein monomer
# [3] = biological target: T1, human alpha-synuclein protein, monomeric; assay: SPR (Biacore), full-cycle kinetics: IgG captured on anti-human Fc CM5 chip, alpha-synuclein monomer injected, 1:1 Langmuir fit
# [4] = biological target: human alpha-synuclein protein (full-length; monomer/oligomer form not specified at the place) (human, UniProt P37840 1-140); assay: SPR (Biacore T200), protein captured by anti-human-Fc on a CM5 chip, recombinant alpha-synuclein injected (Table 14)
Binder,Kd [3] [nM],koff [3] [s⁻¹],kon [3] [M⁻¹ s⁻¹],further results
B1,–,–,–,binding result [1]: binds
B2,–,–,–,binding result [2]: binds
B3,6.38,0.0003,47000,–
B4,1.63,0.0015,920000,–
B5,6.7,0.00067,100000,–
B6,29.3,0.0012,41000,–
B7,–,–,–,binding result [4]: binds
B8,–,–,–,binding result [4]: binds

# From WO2018237338A1 (dated 2018)
